The target in the series is T1, RamA (His6-RamA) (Corynebacterium glutamicum (ATCC 13032?)) (UniProt Q8NML3).
T1 sequence: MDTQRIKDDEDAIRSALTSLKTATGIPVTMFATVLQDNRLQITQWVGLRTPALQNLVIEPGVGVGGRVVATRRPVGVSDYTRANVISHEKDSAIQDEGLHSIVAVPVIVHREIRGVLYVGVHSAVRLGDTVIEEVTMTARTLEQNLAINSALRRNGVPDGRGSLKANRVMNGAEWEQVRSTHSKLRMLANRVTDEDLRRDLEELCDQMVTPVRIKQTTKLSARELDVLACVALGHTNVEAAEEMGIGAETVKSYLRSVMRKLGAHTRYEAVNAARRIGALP
Put plainly: EMSA. The conditions noted are these: 10 mM Tris, 1 mM dithioerythritol, 1 mM EDTA, 1 ug poly[d(I-C)], 10% glycerol, 20 ul, about 70 ng DNA, 20 min at room temperature, pH not stated; 2% agarose in …. (In general: Mobility shift assays separate free from complexed probe on a gel.)

With “TGAAGTATTGGGATCACGCCACGCAAGATCGCGGGCATTTGCTCTAAACCACACGAGCAGGGCTGTTTGAAAAGCTGTAAATGACATGACCTAAATGATTGTACTGACTGGCACTTTAGGTCATATGTCACACCGAGTGGAATAATAAAGCTTATGCCTTTGCGTAATGTTGAGGTACCCCG (double strand) [PF3]”, the binding result was “no binding”.

The values are drawn from article PMC4847777.
